Reference: patent US20220332804A1 (CSL INNOVATION, published 2022)

Tests used:
Test in all cases: SPR, antibody captured, C2 as analyte;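 note: biacore SPR at 37 °C, anti-C2 mAbs captured via goat anti-human IgG on CM5 chips, double-referenced sensorgrams fit to a 1:1 kinetic or steady-state model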
human C2 K721A = molecular target: T1, human C2 K721A (human, UniProt P06681 21-752)
T1 sequence: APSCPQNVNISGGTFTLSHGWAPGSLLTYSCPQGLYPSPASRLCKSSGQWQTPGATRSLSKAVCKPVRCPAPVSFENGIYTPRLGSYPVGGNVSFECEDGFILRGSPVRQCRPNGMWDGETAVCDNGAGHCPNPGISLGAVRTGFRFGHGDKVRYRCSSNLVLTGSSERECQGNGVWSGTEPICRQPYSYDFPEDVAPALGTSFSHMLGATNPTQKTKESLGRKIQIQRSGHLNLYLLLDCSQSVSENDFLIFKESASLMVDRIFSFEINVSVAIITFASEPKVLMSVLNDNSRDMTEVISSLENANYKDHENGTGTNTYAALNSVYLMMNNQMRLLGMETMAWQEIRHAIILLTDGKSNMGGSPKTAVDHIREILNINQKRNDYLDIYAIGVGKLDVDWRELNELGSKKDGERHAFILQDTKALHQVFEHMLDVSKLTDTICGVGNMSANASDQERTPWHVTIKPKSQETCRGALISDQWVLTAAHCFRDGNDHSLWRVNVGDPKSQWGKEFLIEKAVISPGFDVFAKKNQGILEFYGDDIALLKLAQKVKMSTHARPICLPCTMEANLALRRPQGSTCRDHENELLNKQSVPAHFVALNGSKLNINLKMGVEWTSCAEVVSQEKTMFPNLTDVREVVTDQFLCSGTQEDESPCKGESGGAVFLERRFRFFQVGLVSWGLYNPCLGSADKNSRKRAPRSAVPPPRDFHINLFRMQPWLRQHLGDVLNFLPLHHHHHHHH

human C2 A436S = molecular target: T2, human C2 A436S (human, UniProt P06681 21-752)
T2 sequence: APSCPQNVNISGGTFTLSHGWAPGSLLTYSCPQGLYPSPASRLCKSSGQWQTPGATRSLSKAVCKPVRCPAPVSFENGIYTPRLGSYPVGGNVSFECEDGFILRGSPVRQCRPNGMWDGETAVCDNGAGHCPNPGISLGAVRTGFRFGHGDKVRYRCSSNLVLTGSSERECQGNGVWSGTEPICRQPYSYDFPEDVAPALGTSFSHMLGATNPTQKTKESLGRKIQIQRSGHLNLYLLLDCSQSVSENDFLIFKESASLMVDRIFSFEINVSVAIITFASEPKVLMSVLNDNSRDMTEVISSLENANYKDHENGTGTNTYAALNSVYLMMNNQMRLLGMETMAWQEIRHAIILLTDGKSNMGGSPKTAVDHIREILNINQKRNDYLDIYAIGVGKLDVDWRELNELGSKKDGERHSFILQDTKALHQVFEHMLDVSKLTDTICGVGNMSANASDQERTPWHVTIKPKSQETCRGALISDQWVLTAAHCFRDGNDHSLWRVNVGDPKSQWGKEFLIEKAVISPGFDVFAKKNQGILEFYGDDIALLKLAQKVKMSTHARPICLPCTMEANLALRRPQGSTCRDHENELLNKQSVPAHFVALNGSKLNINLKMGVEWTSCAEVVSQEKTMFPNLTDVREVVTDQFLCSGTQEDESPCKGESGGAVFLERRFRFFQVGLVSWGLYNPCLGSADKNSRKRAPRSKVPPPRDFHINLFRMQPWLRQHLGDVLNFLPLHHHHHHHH

human C2 K715A = molecular target: T3, human C2 K715A (human, UniProt P06681 21-752)
T3 sequence: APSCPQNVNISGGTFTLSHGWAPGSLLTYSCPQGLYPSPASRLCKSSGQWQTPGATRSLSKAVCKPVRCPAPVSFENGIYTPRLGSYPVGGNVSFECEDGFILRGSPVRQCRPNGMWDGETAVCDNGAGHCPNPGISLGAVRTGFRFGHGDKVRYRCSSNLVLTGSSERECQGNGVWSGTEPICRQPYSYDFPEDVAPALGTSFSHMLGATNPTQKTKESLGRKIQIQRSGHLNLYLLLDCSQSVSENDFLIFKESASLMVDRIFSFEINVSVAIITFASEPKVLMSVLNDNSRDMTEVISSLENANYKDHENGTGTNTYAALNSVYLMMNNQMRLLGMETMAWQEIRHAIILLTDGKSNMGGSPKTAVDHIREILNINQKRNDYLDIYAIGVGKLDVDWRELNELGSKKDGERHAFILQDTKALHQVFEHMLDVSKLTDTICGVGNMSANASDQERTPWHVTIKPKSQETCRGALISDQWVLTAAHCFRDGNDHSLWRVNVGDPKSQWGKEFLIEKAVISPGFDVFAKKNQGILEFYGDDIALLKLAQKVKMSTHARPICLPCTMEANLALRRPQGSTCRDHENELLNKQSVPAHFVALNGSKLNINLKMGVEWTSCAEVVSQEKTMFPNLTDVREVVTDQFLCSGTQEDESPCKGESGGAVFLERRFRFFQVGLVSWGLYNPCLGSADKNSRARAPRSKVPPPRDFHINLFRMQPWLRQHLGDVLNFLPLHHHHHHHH

human C2 Y328A = molecular target: T4, human C2 Y328A (human, UniProt P06681 21-752)
T4 sequence: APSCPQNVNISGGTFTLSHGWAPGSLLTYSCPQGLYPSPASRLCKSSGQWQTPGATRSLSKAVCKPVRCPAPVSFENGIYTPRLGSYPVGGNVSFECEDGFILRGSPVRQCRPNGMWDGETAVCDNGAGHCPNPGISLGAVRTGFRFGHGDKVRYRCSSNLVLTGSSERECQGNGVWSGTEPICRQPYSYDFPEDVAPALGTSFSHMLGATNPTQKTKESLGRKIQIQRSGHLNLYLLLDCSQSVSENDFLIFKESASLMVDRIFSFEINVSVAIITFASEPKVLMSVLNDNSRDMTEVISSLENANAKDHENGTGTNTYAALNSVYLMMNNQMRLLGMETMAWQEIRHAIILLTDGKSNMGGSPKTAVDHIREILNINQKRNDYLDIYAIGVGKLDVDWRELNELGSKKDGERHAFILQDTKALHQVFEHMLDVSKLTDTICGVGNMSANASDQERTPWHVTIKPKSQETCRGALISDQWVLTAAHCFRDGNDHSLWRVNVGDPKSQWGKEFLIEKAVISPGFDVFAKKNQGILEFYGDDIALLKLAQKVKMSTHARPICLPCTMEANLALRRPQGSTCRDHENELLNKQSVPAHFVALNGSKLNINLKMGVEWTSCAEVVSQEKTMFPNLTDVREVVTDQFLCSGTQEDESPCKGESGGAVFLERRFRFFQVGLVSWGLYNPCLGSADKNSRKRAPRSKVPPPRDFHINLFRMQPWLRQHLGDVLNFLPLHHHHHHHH

B1: RF16-226 (antibody, human IgG4 S228P, lambda)
heavy: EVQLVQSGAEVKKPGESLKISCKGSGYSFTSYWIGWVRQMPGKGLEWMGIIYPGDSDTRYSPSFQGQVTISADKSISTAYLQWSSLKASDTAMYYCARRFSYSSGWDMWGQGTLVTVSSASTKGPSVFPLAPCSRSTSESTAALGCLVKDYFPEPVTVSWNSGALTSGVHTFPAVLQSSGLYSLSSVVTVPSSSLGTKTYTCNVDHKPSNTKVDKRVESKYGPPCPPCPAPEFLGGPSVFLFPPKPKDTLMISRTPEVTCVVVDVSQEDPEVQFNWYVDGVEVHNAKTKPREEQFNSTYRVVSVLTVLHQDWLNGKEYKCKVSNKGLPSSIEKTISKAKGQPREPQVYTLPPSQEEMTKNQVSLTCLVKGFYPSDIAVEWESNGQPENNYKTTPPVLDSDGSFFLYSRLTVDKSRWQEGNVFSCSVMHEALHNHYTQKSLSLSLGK
light: SYELTQPPSVSVSPGQTARITCSGDALTSKYVAWYQQKSGLAPLLVIYEDTRRPSGIPAKFSGSSSGSVATLTISGAHGDDEADYYCYSTDASGHQRVFGGGTKLTVLSQPKAAPSVTLFPPSSEELQANKATLVCLISDFYPGAVTVAWKADGSPVKAGVETTKPSKQSNNKYAASSYLSLTPEQWKSHRSYSCQVTHEGSTVEKTVAPTECS
notes: pH-dependent anti-C2 antibody from a phage display library; also called WT
Human C2 K721A
  Kd: 0.0999 µM
Human C2 A436S
  Kd: 0.0062 µM
Human C2 K715A
  Kd: 0.0162 µM
Human C2 Y328A
  Kd: 0.0784 µM
